Results: patent US20250277060A1

How the values were obtained:
[1] = target: canine IgM µ-chain antigen (protein accession number E2RE31) (canine (Canis lupus familiaris)); experiment: staining of cells from CLBL-1 xenograft tumours
[2] = target: canine IgM µ-chain antigen (protein accession number E2RE31) (canine (Canis lupus familiaris)); experiment: flow cytometry screening of hybridoma clones on CLBL-1 cells

% of tumour cells positive [1] [%] | % binding (tier threshold of column) [2] [%] | Binder
> 95 | > 80 | CL-m17A11 (antibody, V domains shown) VH: QIQLQQSGPELVKPGASVKVSCKASGYSFTDYNIYWVKQSHGKSLEWIGFFDPHNGNTTYNQKFKGKATLTVDKSSSTAFMHLNSLTSEDSAVYYCAREGYLYAMDYWGQGTSVTVSS VL: DVLMTQTPLSLPVSLGDQASISCRSSQSIEHSNGNTYLEWYLQKPGQAPKLLIFKVSNRFSGVPDRFSGSGSGTDFTLKISRMEAEDLGVYYCFQGSHVPPTFGGGTKLEIKR
> 95 |  | CL-c17A11 (antibody, V domains shown) VH: QIQLQQSGPELVKPGASVKVSCKASGYSFTDYNIYWVKQSHGKSLEWIGFFDPHNGNTTYNQKFKGKATLTVDKSSSTAFMHLNSLTSEDSAVYYCAREGYLYAMDYWGQGTSVTVSS VL: DVLMTQTPLSLPVSLGDQASISCRSSQSIEHSNGNTYLEWYLQKPGQAPKLLIFKVSNRFSGVPDRFSGSGSGTDFTLKISRMEAEDLGVYYCFQGSHVPPTFGGGTKLEIKR
